# Source: IntAct's records for PubMed 31515488
# B1: 26S proteasome non-ATPase regulatory subunit 9 (Homo sapiens), O00233 (parent)
# chain: MSDEEARQSGGSSQAGVVTVSDVQELMRRKEEIEAQIKANYDVLESQKGIGMNEPLVDCEGYPRSDVDLYQVRTARHNIICLQNDHKAVMKQVEEALHQLHARDKEKQARDMAEAHKEAMSRKLGQSESQGPPRAFAKVNSISPGSPASIAGLQVDDEIVEFGSVNTQNFQSLHNIGSVVQHSEGKPLNVTVIRRGEKHQLRLVPTRWAGKGLLGCNIIPLQR
# B2: Sodium channel modifier 1 (Homo sapiens), Q9BWG6 (parent)
# chain: MSFKREGDDWSQLNVLKKRRVGDLLASYIPEDEALMLRDGRFACAICPHRPVLDTLAMLTAHRAGKKHLSSLQLFYGKKQPGKERKQNPKHQNELRREETKAEAPLLTQTRLITQSALHRAPHYNSCCRRKYRPEAPGPSVSLSPMPPSEVKLQSGKISREPEPAAGPQAEESATVSAPAPMSPTRRRALDHYLTLRSSGWIPDGRGRWVKDENVEFDSDEEEPPDLPLD
# partner: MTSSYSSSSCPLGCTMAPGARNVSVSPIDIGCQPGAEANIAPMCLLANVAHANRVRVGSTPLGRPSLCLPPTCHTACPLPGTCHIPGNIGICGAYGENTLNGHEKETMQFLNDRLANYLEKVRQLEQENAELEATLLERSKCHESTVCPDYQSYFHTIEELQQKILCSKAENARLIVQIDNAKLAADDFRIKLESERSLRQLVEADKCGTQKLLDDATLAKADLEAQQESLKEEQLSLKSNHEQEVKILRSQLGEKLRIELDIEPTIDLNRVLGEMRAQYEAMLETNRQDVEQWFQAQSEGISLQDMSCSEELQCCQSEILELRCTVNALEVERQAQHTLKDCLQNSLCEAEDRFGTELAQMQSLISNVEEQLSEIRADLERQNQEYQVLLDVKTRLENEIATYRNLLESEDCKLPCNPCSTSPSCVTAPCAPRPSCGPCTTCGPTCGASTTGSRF
# B3: Pseudouridylate synthase PUS7L (Homo sapiens), Q9H0K6 (parent)
# chain: MEEDTDYRIRFSSLCFFNDHVGFHGTIKSSPSDFIVIEIDEQGQLVNKTIDEPIFKISEIQLEPNNFPKKPKLDLQNLSLEDGRNQEVHTLIKYTDGDQNHQSGSEKEDTIVDGTSKCEEKADVLSSFLDEKTHELLNNFACDVREKWLSKTELIGLPPEFSIGRILDKNQRASLHSAIRQKFPFLVTVGKNSEIVVKPNLEYKELCHLVSEEEAFDFFKYLDAKKENSKFTFKPDTNKDHRKAVHHFVNKKFGNLVETKSFSKMNCSAGNPNVVVTVRFREKAHKRGKRPLSECQEGKVIYTAFTLRKENLEMFEAIGFLAIKLGVIPSDFSYAGLKDKKAITYQAMVVRKVTPERLKNIEKEIEKKRMNVFNIRSVDDSLRLGQLKGNHFDIVIRNLKKQINDSANLRERIMEAIENVKKKGFVNYYGPQRFGKGRKVHTDQIGLALLKNEMMKAIKLFLTPEDLDDPVNRAKKYFLQTEDAKGTLSLMPEFKVRERALLEALHRFGMTEEGCIQAWFSLPHSMRIFYVHAYTSKIWNEAVSYRLETYGARVVQGDLVCLDEDIDDENFPNSKIHLVTEEEGSANMYAIHQVVLPVLGYNIQYPKNKVGQWYHDILSRDGLQTCRFKVPTLKLNIPGCYRQILKHPCNLSYQLMEDHDIDVKTKGSHIDETALSLLISFDLDASCYATVCLKEIMKHDV
# partner: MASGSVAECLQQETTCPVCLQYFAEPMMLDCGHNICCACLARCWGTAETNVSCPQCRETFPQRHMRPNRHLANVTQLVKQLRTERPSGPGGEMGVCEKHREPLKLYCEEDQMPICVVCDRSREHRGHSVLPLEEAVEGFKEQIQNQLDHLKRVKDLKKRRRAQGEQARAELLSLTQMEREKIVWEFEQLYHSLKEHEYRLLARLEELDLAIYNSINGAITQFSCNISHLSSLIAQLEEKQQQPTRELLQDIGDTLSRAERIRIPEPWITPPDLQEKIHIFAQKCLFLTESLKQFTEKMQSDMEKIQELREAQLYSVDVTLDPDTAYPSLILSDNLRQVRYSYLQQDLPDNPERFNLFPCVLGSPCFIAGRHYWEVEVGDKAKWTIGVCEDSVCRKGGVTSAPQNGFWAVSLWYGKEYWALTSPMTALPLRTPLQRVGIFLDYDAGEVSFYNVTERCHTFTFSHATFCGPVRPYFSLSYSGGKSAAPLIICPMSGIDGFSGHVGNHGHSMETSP
# B4: Notch homolog 2 N-terminal-like protein A (Homo sapiens), Q7Z3S9 (parent)
# chain: MCVTYHNGTGYCKCPEGFLGEYCQHRDPCEKNRCQNGGTCVAQAMLGKATCRCASGFTGEDCQYSTSHPCFVSRPCLNGGTCHMLSRDTYECTCQVGFTGKECQWTDACLSHPCANGSTCTTVANQFSCKCLTGFTGQKCETDVNECDIPGHCQHGGTCLNLPGSYQCQCLQGFTGQYCDSLYVPCAPSPCVNGGTCRQTGDFTFECNCLPETVRRGTELWERDREVWNGKEHDEN
# partner: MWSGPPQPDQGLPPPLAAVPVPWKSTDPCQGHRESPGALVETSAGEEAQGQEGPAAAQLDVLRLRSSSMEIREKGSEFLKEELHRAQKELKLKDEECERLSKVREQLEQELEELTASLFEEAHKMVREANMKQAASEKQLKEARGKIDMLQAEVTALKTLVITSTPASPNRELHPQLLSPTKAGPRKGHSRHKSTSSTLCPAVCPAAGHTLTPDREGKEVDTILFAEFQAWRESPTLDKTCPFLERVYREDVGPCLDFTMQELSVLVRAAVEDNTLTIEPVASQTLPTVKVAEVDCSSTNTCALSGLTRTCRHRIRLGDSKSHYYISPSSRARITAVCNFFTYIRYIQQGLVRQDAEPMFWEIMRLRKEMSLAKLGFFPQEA
# B5: Zinc finger protein 655 (Homo sapiens), Q8N720 (parent)
# chain: MEEIPAQEAAGSPRVQFQSLETQSECLSPEPQFVQDTDMEQGLTGDGETREENKLLIPKQKISEEVHSYKVRVGRLKHDITQVPETREVYKSEDRLERLQEILRKFLYLEREFRQITISKETFTSEKNNECHEPEKSFSLDSTIDADQRVLRIQNTDDNDKYDMSFNQNSASGKHEHLNLTEDFQSSECKESLMDLSHLNKWESIPNTEKSYKCDVCGKIFHQSSALTRHQRIHTREKPYKCKECEKSFSQSSSLSRHKRIHTREKPYKCEASDKSCEASDKSCSPSSGIIQHKKIHTRAKSYKCSSCERVFSRSVHLTQHQKIHKEMPCKCTVCGSDFCHTSYLLEHQRVHHEEKAYEYDEYGLAYIKQQGIHFREKPYTCSECGKDFRLNSHLIQHQRIHTGEKAHECNECGKAFSQTSCLIQHHKMHRKEKSYECNEYEGSFSHSSDLILQQEVLTRQKAFDCDVWEKNSSQRAHLVQHQSIHTKENS
# partner: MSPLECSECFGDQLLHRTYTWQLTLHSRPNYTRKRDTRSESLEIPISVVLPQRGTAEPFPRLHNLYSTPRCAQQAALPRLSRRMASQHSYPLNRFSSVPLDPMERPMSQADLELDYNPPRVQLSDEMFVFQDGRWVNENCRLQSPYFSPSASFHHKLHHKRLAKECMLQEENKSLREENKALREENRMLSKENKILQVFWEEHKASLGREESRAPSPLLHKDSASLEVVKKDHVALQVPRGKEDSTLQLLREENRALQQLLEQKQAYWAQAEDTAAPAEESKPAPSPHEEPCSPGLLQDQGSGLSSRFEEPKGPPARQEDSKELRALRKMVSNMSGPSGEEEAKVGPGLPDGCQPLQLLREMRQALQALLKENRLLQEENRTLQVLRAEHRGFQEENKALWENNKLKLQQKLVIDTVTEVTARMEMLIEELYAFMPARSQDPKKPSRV
# B6: Isoform 1 of NF-kappa-B inhibitor beta (Homo sapiens), Q15653-1 (parent)
# chain: MAGVACLGKAADADEWCDSGLGSLGPDAAAPGGPGLGAELGPGLSWAPLVFGYVTEDGDTALHLAVIHQHEPFLDFLLGFSAGTEYMDLQNDLGQTALHLAAILGETSTVEKLYAAGAGLCVAERRGHTALHLACRVGAHACARALLQPRPRRPREAPDTYLAQGPDRTPDTNHTPVALYPDSDLEKEEEESEEDWKLQLEAENYEGHTPLHVAVIHKDVEMVRLLRDAGADLDKPEPTCGRSPLHLAVEAQAADVLELLLRAGANPAARMYGGRTPLGSAMLRPNPILARLLRAHGAPEPEGEDEKSGPCSSSSDSDSGDEGDEYDDIVVHSSRSQTRLPPTPASKPLPDDPRPV
# partner: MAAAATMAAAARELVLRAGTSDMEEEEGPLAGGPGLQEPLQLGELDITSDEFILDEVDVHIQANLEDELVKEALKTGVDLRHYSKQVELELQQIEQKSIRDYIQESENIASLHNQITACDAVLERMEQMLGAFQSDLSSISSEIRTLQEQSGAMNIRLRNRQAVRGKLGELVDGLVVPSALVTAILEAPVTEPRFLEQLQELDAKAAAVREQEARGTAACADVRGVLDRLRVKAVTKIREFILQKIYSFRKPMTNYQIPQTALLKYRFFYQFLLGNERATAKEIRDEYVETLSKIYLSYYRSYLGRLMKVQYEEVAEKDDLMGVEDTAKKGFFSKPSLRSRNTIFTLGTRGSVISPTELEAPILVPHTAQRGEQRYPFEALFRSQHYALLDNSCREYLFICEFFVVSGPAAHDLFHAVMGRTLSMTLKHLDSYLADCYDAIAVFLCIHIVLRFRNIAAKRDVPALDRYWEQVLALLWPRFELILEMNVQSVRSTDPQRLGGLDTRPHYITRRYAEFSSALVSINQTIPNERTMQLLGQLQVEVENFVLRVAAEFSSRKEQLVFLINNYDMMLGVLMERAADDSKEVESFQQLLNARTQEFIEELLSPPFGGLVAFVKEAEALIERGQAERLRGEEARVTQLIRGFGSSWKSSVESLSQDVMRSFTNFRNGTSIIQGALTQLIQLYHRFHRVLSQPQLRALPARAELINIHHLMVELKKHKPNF
# B7: Adiponectin (Homo sapiens), Q15848 (parent)
# chain: MLLLGAVLLLLALPGHDQETTTQGPGVLLPLPKGACTGWMAGIPGHPGHNGAPGRDGRDGTPGEKGEKGDPGLIGPKGDIGETGVPGAEGPRGFPGIQGRKGEPGEGAYVYRSAFSVGLETYVTIPNMPIRFTKIFYNQQNHYDGSTGKFHCNIPGLYYFAYHITVYMKDVKVSLFKKDKAMLFTYDQYQENNVDQASGSVLLHLEVGDQVWLQVYGEGERNGLYADNDNDSTFTGFLLYHDTN
# B8: Notch homolog 2 N-terminal-like protein A (Homo sapiens), Q7Z3S9 (parent)
# chain: B4 chain
# partner: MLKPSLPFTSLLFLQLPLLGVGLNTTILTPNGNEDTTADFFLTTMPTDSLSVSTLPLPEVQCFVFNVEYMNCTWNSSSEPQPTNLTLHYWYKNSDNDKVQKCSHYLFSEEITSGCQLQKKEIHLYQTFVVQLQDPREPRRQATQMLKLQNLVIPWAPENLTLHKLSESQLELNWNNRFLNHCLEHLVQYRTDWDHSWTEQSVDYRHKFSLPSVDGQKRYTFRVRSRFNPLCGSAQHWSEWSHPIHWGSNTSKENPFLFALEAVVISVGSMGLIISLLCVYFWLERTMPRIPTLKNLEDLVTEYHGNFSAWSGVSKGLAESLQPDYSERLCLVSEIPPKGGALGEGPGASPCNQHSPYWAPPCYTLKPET
# Variants of: B1
# Details: with cc136_human CCDC136, Q96JN2
# cc136_human CCDC136, Q96JN2, sequence (Q96JN2 whole entry): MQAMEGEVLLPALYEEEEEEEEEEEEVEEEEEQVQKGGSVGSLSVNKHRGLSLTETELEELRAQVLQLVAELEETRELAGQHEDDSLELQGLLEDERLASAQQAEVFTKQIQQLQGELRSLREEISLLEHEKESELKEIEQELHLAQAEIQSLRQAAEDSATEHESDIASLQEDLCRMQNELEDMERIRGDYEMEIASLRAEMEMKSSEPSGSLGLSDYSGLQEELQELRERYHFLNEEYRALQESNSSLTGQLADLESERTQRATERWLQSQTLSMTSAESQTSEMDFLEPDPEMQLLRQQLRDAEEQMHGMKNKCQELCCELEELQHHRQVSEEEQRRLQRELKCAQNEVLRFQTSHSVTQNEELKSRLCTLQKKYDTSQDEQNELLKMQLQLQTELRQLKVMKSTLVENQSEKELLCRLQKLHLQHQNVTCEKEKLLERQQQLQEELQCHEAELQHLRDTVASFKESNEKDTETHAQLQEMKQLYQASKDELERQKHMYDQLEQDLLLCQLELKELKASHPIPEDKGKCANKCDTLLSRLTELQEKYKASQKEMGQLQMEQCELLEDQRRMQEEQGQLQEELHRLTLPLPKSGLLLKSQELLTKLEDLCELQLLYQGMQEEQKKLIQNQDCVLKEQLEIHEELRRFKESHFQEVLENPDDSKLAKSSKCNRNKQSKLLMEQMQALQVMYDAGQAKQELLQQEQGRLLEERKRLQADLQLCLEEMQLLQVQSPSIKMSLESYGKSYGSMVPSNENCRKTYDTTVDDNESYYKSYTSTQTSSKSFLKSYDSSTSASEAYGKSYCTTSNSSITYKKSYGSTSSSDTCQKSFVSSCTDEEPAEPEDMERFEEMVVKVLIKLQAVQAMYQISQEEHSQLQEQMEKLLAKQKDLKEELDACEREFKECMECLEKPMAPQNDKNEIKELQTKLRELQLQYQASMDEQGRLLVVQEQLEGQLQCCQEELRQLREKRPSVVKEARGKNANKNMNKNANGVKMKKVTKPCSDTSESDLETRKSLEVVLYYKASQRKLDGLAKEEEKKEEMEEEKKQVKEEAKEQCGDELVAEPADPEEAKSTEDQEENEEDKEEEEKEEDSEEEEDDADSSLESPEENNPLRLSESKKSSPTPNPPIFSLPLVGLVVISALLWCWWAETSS
row,Variant,effect of a mutation on the interaction
1,V17A,with no effect

# Variants of: B2
# Details: with krt38_human KRT38, O76015
row,Variant,effect of a mutation on the interaction
1,A174V,with no effect

# Variants of: B3
# Details: with tri27_human TRIM27, P14373
row,Variant,effect of a mutation on the interaction
1,I50V,with no effect
2,R527C,disrupting interaction strength

# Variants of: B4
# Details: with RAB3IL1, Q8TBN0
row,Variant,effect of a mutation on the interaction
1,R74Q,with no effect
2,A115T,with no effect

# Variants of: B5
# Details: with cby2_human CBY2, Q8NA61
row,Variant,effect of a mutation on the interaction
1,C466G,with no effect

# Variants of: B6
# Details: with vps52_human VPS52, Q8N1B4
row,Variant,effect of a mutation on the interaction
1,Q69L,with no effect

# Variants of: B7
# Details: with sgta_human SGTA
row,Variant,effect of a mutation on the interaction
1,Y111H,with no effect

# Variants of: B8
# Details: with il2rg_human IL2RG
row,Variant,effect of a mutation on the interaction
1,R74Q,with no effect
2,A115T,with no effect
